Key:
[1] = target: N-terminally His6-tagged wild-type Gαo (rat) (UniProt P59215)
[2] = target: N-terminally His6-tagged Gαo E246K mutant (rat) (UniProt P59215)

RGS16 domain (domain or fragment)
kGAP (single-turnover GTPase assay, 400 nM Gα, 20 nM RGS16) [1]: 1.6 min⁻¹
kGAP (single-turnover GTPase assay, 400 nM Gα, 20 nM RGS16) [2]: 1.7 min⁻¹

Source: paper doi:10.1101/2025.09.03.673757
